According to paper PMC4117778:

Biological target: human DNA polymerase beta (polβ) (Homo sapiens, UniProt P06746 1-335)
Test: X-ray crystallography; gapped binary complex, no incoming nucleotide; open conformation; 2.4 Å; Crystallization conditions not in material; kinetics (turnover only, not listed): 50 mM Tris-HCl pH 7.5, 5 mM MgCl2, 100 mM KCl, 80 nM DNA, 37°C

B1: single-nucleotide gapped DNA with templating Fm7dG (crystal) (dsDNA)
DNA 1: CCGACGTCGCATCAGC
DNA 2: GCTGATGCGA
DNA 3: GTCGG
modifications: template G6 = 2'-fluoro-N7-methyl-2'-deoxyguanosine (Fm7dG); 5'-phosphate on downstream primer GTCGG
- binding result: binds
